Measurements taken from the supplement of paper PMC9170038.

Experiments:
[1] = test system: K4 kissing-loop RNA reporter; experiment: apparent KD of K4 kissing-loop reporter; higher = weaker reporter binding; conditions: Eterna round: R107;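 note: bound reporter read as fluorescence of individual clusters on recovered sequencing chips by microscopy, with normalized cluster intensities fitted with a binding model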
Description: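 RNA-MaP round R107: designed RNA switches with theophylline, tryptophan, arginine or FMN aptamers are transcribed on-chip within common flanks. They are titrated with a labelled K4 kissing-loop RNA reporter in RNA-MaP buffer (100 mM Tris pH 7.5, 80 mM KCl, 4 mM MgCl2), without ligand or with the indicated ligand. Median apparent KD per design.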

MS2 coat protein = experiment: apparent KD of MS2 coat protein; designed switch direction (-1 OFF switch, 1 ON switch): -1; higher = weaker reporter binding
Procedure, shortened: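 On Illumina chips, designed RNA switches with common flanks were made by stalled E. coli RNA polymerase. Titrations with SNAP-549-labelled MS2 coat protein, doubling from 0.7 or 1.5 nM to 3 µM, were done with no input, with 200 uM small-molecule ligand, or with an oligonucleotide input. Apparent KD is the median per design over clusters, from curve fits of normalised cluster fluorescence.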

[2] = input ligand: theophylline 20 uM
[3] = input ligand: tryptophan 2.4 mM
[4] = Eterna round: R95, input ligand: microRNA oligo, concentration not stated
[5] = input ligand: microRNA oligo, concentration not stated
[6] = Eterna round: R95, input ligand: FMN 200 uM
[7] = Eterna round: R95, input ligand: none

## AAACAUUGGUCGGAUACCAGUUAGACCGAUAAGGUCAAAACUGGAGUGAUGUUCCCAAAUAACCCUUGGCAGCCGACCGAUGAAA [MAT - Same State Theophlline B - Mod of Eli - D11]
[1]; input ligand: FMN 200 uM
  apparent KD of K4 kissing-loop reporter: 193 nM
[1]; input ligand: arginine 13.2 mM
  apparent KD of K4 kissing-loop reporter: 121 nM
[1]; input ligand: none
  apparent KD of K4 kissing-loop reporter: 167 nM
[1]; [2]
  apparent KD of K4 kissing-loop reporter: 205 nM
[1]; [3]
  apparent KD of K4 kissing-loop reporter: 221 nM

## AAAGAAGUAUACUUCAAGAGGUAUGCUGAUACCAGAGUCAAUUGACUCCCUUGGCAGCGGAUCGAGUGAUGUUCGUAACCUCAAA [AK3 SS Theophylline A]
[1]; input ligand: FMN 200 uM
  apparent KD of K4 kissing-loop reporter: 118 nM
[1]; input ligand: arginine 13.2 mM
  apparent KD of K4 kissing-loop reporter: 178 nM
[1]; input ligand: none
  apparent KD of K4 kissing-loop reporter: 153 nM
[1]; [2]
  apparent KD of K4 kissing-loop reporter: 192 nM
[1]; [3]
  apparent KD of K4 kissing-loop reporter: 117 nM

## AAAGACUGACUGCAAUUAGCAGUCAGUCAACGAGGACCGGUACGGCCGCCACUCGGGUCCUAGAGUGAUGUUCUAAUAAUAUAAU [Default title]
[1]; input ligand: FMN 200 uM
  apparent KD of K4 kissing-loop reporter: 279 nM
[1]; input ligand: arginine 13.2 mM
  apparent KD of K4 kissing-loop reporter: 367 nM
[1]; input ligand: none
  apparent KD of K4 kissing-loop reporter: 432 nM
[1]; [2]
  apparent KD of K4 kissing-loop reporter: 466 nM
[1]; [3]
  apparent KD of K4 kissing-loop reporter: 167 nM

## AAAUAAAGCAGUCAGCCAGUGAUGUUGGAAGGAGCGUGCGAAAGCACAGGUAGGUCGCCAAAACCUAAUACUGGCUGCUAAAUAA [#SwitchBubble 1 #K4Early]
[1]; input ligand: FMN 200 uM
  apparent KD of K4 kissing-loop reporter: 979 nM
[1]; input ligand: arginine 13.2 mM
  apparent KD of K4 kissing-loop reporter: 643 nM
[1]; input ligand: none
  apparent KD of K4 kissing-loop reporter: 773 nM
[1]; [2]
  apparent KD of K4 kissing-loop reporter: 753 nM
[1]; [3]
  apparent KD of K4 kissing-loop reporter: 542 nM

## AAAUAACAGGCAGGAUAUGCUUAGUAAUAAGGCCAUAUAUACGUAUAGAGUGAUGUUUUGUACAAAGCAGAAGGGCUAAAUCCAU [FMN B Excl V1]
[1]; input ligand: FMN 200 uM
  apparent KD of K4 kissing-loop reporter: 154 nM
[1]; input ligand: arginine 13.2 mM
  apparent KD of K4 kissing-loop reporter: 151 nM
[1]; input ligand: none
  apparent KD of K4 kissing-loop reporter: 160 nM
[1]; [2]
  apparent KD of K4 kissing-loop reporter: 105 nM
[1]; [3]
  apparent KD of K4 kissing-loop reporter: 167 nM

## AAAUCGUUCAGAAGGAGCGUGGAUUAUUCUUAAAUAUUUAUUACGAGUGAUGUUCGUAAUUCACAGGUAGGUCGCUGAUCGAUAA [JR_ExcArginiB_Sub003]
[1]; input ligand: FMN 200 uM
  apparent KD of K4 kissing-loop reporter: 102 nM
[1]; input ligand: arginine 13.2 mM
  apparent KD of K4 kissing-loop reporter: 137 nM
[1]; input ligand: none
  apparent KD of K4 kissing-loop reporter: 106 nM
[1]; [2]
  apparent KD of K4 kissing-loop reporter: 121 nM
[1]; [3]
  apparent KD of K4 kissing-loop reporter: 105 nM

## UUUGUUUAUGUGAGGAUAUACUGUUUGUUUUGUUUGUAGAAGGUACAUGAGGAUCACCCAUGUUUUGUUUUUUU [JR_BME4_Sub033] (puzzle: Brourd's mod of Exclusion 4)
MS2 coat protein; [4]
  apparent KD of MS2 coat protein: 21 nM

## UUUGUUUUGCAAGGAUAUGUUUAAUUUUAUUUUCCUUACACAUGAGGAUCACCCAUGUUAUACUUACAGAAGGUGCGUAAUUUG [Excl-NG2-LRO04] (Eterna round: R96, puzzle: Exclusion NG 2)
MS2 coat protein; [5]
  apparent KD of MS2 coat protein: 165 nM

## UUUUAACAUGAGGAUCACCCAUGUGAGGAUAUCGAAAUUUAUAUUAAUAUUAAUUAUACGAGAAGGCACAUUUU [JMF 30] (puzzle: Exclusion 1)
MS2 coat protein; [4]
  apparent KD of MS2 coat protein: 84 nM

## UUUUAACAUGAGGAUCACCCAUGUGAGGAUAUCGAAAUUUAUAUUUAUAUUAAUAAUACGAGAAGGCACAUUUU [JMF 78] (puzzle: Exclusion 1)
MS2 coat protein; [4]
  apparent KD of MS2 coat protein: 57 nM

## UUUUAACAUGAGGAUCACCCAUGUGAGGAUAUCGAAAUUUAUAUUUAUAUUUAUAUAUCGAGAAGGCACAUUUU [JMF 96] (puzzle: Exclusion 1)
MS2 coat protein; [4]
  apparent KD of MS2 coat protein: 118 nM

## UUUUAGAGAGGAUAUACAUUUUUUUAUUUAUUUAUAAUAUUACAUGAGGAUCACCCAUGUAGAAGGCUCAUUUU [My Design] (puzzle: Exclusion 2)
MS2 coat protein; [4]
  apparent KD of MS2 coat protein: 25.8 nM

## UUUUAGUCAGGAUAUACAUGAGGAUCACCCAUGUAAAAUUUUAAUUUAAUUUUAAGGUGUAGAAGGGACAAUCC [Ex3 #12] (Eterna round: R97, puzzle: Exclusion 3)
MS2 coat protein; input ligand: FMN 200 uM
  apparent KD of MS2 coat protein: 43.1 nM
MS2 coat protein; input ligand: none
  apparent KD of MS2 coat protein: 38.9 nM

## UUUUAGUGAGGAUAUACAUUUUUUUAAUUAUUUAUAAUAUUACAUGAGGAUCACCCAUGUAGAAGGCACAUUUU [My Design] (puzzle: Exclusion 2)
MS2 coat protein; [4]
  apparent KD of MS2 coat protein: 27.4 nM

## UUUUCAUAUGAAGGAUAUACUUAACAUGAGGAUCACCCAUGUGGUGUUGUGAGUGAGUGAGUUUAGUAGAAGGUCAAUUCUUUU [JMF's solution 90] (Eterna round: R96, puzzle: Exclusion NG 2)
MS2 coat protein; input ligand: FMN 200 uM
  apparent KD of MS2 coat protein: 613 nM
MS2 coat protein; [5]
  apparent KD of MS2 coat protein: 277 nM
MS2 coat protein; input ligand: none
  apparent KD of MS2 coat protein: 351 nM

## UUUUGACAAGCGAGAUCCUACAUGAGGAUCACCCAUGUUGACCAUGGUUUCCAUGGUCUUUUUGCUCGUCUUGUGUG [jl TITIN mod 4] (Eterna round: R97, puzzle: Sensor, turn-off variant 1)
MS2 coat protein; input ligand: FMN 200 uM
  apparent KD of MS2 coat protein: 21.5 nM
MS2 coat protein; input ligand: none
  apparent KD of MS2 coat protein: 21.8 nM

## UUUUGUCGUGACAUGGGUGACAUGAGGAUCACCCAUGUUACAAGCUUGUUGCUCGUCUUAUAAUUAACCCAUGUCAC [LRO Sensor-off var1-17 mod of Stov1-13-A1 by Brourd] (Eterna round: R97, puzzle: Sensor, turn-off variant 1)
MS2 coat protein; input ligand: FMN 200 uM
  apparent KD of MS2 coat protein: 17.6 nM
MS2 coat protein; input ligand: none
  apparent KD of MS2 coat protein: 16.1 nM

## UUUUUAUAUGAAGGAUAUACUUAACAUGAGGAUCACCCAUGUGGUGUUGUGAGUGAGUGAGUUUAGUAGAAGGUCAAAUAUUUU [JMF's solution 7] (Eterna round: R96, puzzle: Exclusion NG 2)
MS2 coat protein; input ligand: FMN 200 uM
  apparent KD of MS2 coat protein: 583 nM
MS2 coat protein; [5]
  apparent KD of MS2 coat protein: 194 nM
MS2 coat protein; input ligand: none
  apparent KD of MS2 coat protein: 270 nM

## UUUUUCGAACAAGCAUCGAACAUGAGGAUCACCCAUGUAGGUAGAUUUGAGUAGGUAUGGAAGUAAGCUCGUCUUAU [JR_SV3TOV1_Sub080] (puzzle: Sensor v3, turn-off variant 1)
MS2 coat protein; [6]
  apparent KD of MS2 coat protein: 39.4 nM
MS2 coat protein; [4]
  apparent KD of MS2 coat protein: 107 nM
MS2 coat protein; [7]
  apparent KD of MS2 coat protein: 53.9 nM

## UUUUUCGAACAAGCUACGUACAUGAGGAUCACCCAUGUCGGUAGAUUUGAGUAGGUUUGGAUGGAAGCUCGUCUUAU [JR_SV3TOV1_Sub085] (puzzle: Sensor v3, turn-off variant 1)
MS2 coat protein; [6]
  apparent KD of MS2 coat protein: 19.4 nM
MS2 coat protein; [4]
  apparent KD of MS2 coat protein: 28.2 nM
MS2 coat protein; [7]
  apparent KD of MS2 coat protein: 19.5 nM

## UUUUUGUGAGGAUAUGCAAUAUCUUCUAUUUAUUAUUAAUUGCAGAAGGCACAUGAGGAUCACCCAUGUAUUUU [Ex4 - 3 - 36] (puzzle: Exclusion 4)
MS2 coat protein; [4]
  apparent KD of MS2 coat protein: 20.5 nM

## UUUUUUGGGCAAGGAUAUCCUGUGCGGUUCCGGCUCGUGUCUGUCACAUGAGGAUCACCCAUGUGGGAGAAGGUGCCUGCGGUU [Design 84] (Eterna round: R96, puzzle: Exclusion NG 2)
MS2 coat protein; input ligand: FMN 200 uM
  apparent KD of MS2 coat protein: 15.1 nM
MS2 coat protein; [5]
  apparent KD of MS2 coat protein: 10.8 nM
MS2 coat protein; input ligand: none
  apparent KD of MS2 coat protein: 15.4 nM

## UUUUUUGGGCAAGGAUAUCCUGUGCGGUUCCGGCUCGUGUCUGUUACAUGAGGAUCACCCAUGUGGGAGAAGGUGCCUGCGGUU [Design 85] (Eterna round: R96, puzzle: Exclusion NG 2)
MS2 coat protein; input ligand: FMN 200 uM
  apparent KD of MS2 coat protein: 172 nM
MS2 coat protein; [5]
  apparent KD of MS2 coat protein: 31.1 nM
MS2 coat protein; input ligand: none
  apparent KD of MS2 coat protein: 34.9 nM
